Measurements published in patent US10000775B2, “Biosynthesis of 1-undecene and related terminal olefins” (The Regents of the University of California, priority 2013, dated 2018).

Tests used:
E. coli = experiment: 1-undecene production in E. coli overexpressing PFL_4321, PFL_0203 or homologs, with or without UcFatB2; format: cell-based; settings: E. coli, one-day shake flask culture in LB media without exogenous lauric acid
Description: E. coli, P. aeruginosa PAO-1, and P. aeruginosa PA14 strains were grown in 5 mL of LB medium overnight at 37° C., while all the other Pseudomonas and Acinetobacter strains were grown at 30° C. […] The culture was shaken in a sealed 20 mL headspace vial (Agilent certified) containing a stir bar at 30° C. for 36 hr. After incubation, an SPME fiber (30 μm polydimethylsiloxane, Supelco, Sigma-Aldrich Group, Bellefonte, Pa.) was manually inserted into the headspace vial and incubated at 25° C. for 12.5 min. GC-MS analysis was conducted on a Varian CP-3800 instrument equipped with a Varian 320-MS. […] The signals of the 1-alkenes were identified and quantified by comparison with authentic samples (MP Biomedicals), which were diluted in ethyl acetate, added to 5 mL of culture medium in a sealed headspace vial, and sampled by the same SPME-GCMS method as described above.
[…] 1-Undecene production was detected by using the SPME-GCMS method. […]
To investigate whether PFL_0203 was facilitating the production of 1-undecene, this gene was individually expressed in E. coli and the cells were monitored for 1-undecene production. […]

[1] = In vitro activity of PFL_4321 and PFL_0203 toward fatty acids with various chain lengths; format: biochemical; parameters: key to In vitro activity toward C8:0 / In vitro activity toward C10:0 / In vitro activity toward C12:0 / In vitro activity toward C14:0 / In vitro activity toward C16:0: ✓: indicates production of the corresponding 1-alkene from the indicated substrate; x: indicates failure to produce the corresponding 1-alkene from the indicated substrate
Description: A typical condition is as follows: 1 mL of reaction mixture contains 50 mM MES buffer (pH 6.2), 300 mM NaCl, 100 μM (NH4)2Fe(SO4)2, 1 mM ascorbic acid, 100 μM fatty acid substrate or analogs, and 10 μM enzyme. The reaction was performed in a sealed headspace vial at 30° C., initiated by adding lauric acid and quenched by injecting equal volume of 5 M NaOH. 1-Undecene production was analyzed and quantified by using the SPME-GCMS method. To determine the kinetic parameters of PFL_4321 on lauric acid, initial velocities at 1, 10, 20, 50, 100, and 150 μM of lauric acid were measured (25 mM lauric acid solution was prepared by adding 0.5% tergitol and heating at 65° C. for 10 min). The reactions were quenched at 2, 4, 6, 8, and 10 seconds, and the acquired turnover rates were fit to the Michaelis-Menten equation using GraphPad Prism to obtain kcat and Km. The kcat and Km of myristic acid and capric acid were determined similarly.
Unless otherwise noted, all experiments with PFL_0203 as described herein were performed using similar assays, procedures, and techniques as used in a given corresponding experiment as described in Example 1.
The fatty acid substrate specificity of PFL_0203 was investigated in a series of in vitro experiments. […] Thus, PFL_4321 and PFL_0203 share some overlap in suitable substrates; PFL_4321 is able to act on C10-C14 fatty acid substrates, and PFL_0203 is able to act on C10-C16 fatty acid substrates.

[2] = In vitro 1-undecene production by purified PFL_0203 with E. coli crude extract; format: biochemical; settings: purified PFL_0203 mixed with E. coli crude extract and exogenous lauric acid

B1: PFL_0203: hypothetical membrane-associated protein from Pseudomonas fluorescens Pf-5 converting C10-C16 fatty acids into 1-alkenes (protein, listed as Pseudomonas protegens)
chain: MQGISASPERMNAQQRAAHVRQVVLARGDELRRRFPLLRHQDALGAGILAFALSGMLGSALLYVTGHLAWWACLLLNAFFASLTHELEHDLIHSMYFRKQRLPHNLMLGLVWLARPSTINPWVRRHLHLNHHKVSGSESDIEERAITNGEPWGIARLLMVGDNMMAAFIRLLRAPGARRKLGILVRTLAVYAPLALLHWGAWYVFLGFHGANGVAALLGSPIQWSQDTASLMHYVDIAVVVIIGPNVLRTFCLHFVSSNMHYYGDIEPGNVIQQTQVLNPWWMWPLQAFCCNFGSTHGIHHFVVREPFYIRQMTASVAHKVMAEMGVRFNDFGTFARANRFTRQEREAMQPAHNARA
E. coli
  titer of 1-undecene: ~0.2 µg/mL
[1]; in vitro, C8 or C18 fatty acids
  activity on C8 or C18 fatty acids: failed to act
[1]; in vitro, C10-C16 fatty acids
  conversion of C10-C16 fatty acids into their corresponding [M-1] 1-alkenes: converted
[1]; substrate C8:0
  In vitro activity toward C8:0: x
[1]; substrate C10:0
  In vitro activity toward C10:0: trace
[1]; substrate C12:0
  In vitro activity toward C12:0: ✓
[1]; substrate C14:0
  In vitro activity toward C14:0: ✓
[1]; substrate C16:0
  In vitro activity toward C16:0: trace
[2]
  1-undecene production: resulted in 1-undecene production
